# Laboratory results reported in patent publication US20240132626A1.
# B1: MetMAb (antibody, INN chains, looked up, V domains shown)
# VH: EVQLVESGGGLVQPGGSLRLSCAASGYTFTSYWLHWVRQAPGKGLEWVGMIDPSNSDTRFNPNFKDRFTISADTSKNTAYLQMNSLRAEDTAVYYCATYRSYVTPLDYWGQGTLVTVSS
# VL: DIQMTQSPSSLSASVGDRVTITCKSSQSLLYTSSQKNYLAWYQQKPGKAPKLLIYWASTRESGVPSRFSGSGSGTDFTLTISSLQPEDFATYYCQQYYAYPWTFGQGTKVEIKR
# Molecular target: Soluble human cMet extracellular domain (ECD) protein (human) (UniProt P08581)
# Assay: SPR, captured via anti-human kappa, soluble ECD injected
# Soluble human cMet extracellular domain (ECD) protein (human), sequence (P08581 25-932): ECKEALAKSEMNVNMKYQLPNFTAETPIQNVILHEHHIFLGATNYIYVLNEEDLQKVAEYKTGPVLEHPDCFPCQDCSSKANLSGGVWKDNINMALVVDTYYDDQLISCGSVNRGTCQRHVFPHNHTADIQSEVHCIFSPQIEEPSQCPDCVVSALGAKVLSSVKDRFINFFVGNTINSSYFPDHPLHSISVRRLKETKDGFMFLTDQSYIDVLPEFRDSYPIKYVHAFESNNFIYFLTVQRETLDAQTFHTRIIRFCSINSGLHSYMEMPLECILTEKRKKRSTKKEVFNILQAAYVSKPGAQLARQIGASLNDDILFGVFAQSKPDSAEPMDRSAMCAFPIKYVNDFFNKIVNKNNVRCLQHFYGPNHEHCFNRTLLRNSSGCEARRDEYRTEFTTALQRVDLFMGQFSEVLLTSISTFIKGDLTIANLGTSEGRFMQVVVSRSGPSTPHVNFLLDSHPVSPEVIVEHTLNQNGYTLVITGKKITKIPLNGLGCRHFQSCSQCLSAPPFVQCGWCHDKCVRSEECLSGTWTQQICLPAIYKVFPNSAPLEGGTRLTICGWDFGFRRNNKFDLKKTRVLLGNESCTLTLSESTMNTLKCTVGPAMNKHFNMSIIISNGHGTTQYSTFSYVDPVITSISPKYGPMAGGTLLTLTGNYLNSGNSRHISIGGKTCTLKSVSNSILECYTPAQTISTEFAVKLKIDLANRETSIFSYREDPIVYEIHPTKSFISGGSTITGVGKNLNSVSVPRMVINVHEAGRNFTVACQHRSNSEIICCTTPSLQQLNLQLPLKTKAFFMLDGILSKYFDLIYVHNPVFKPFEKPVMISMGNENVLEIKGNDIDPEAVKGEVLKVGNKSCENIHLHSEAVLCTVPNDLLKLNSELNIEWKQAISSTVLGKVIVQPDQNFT
binder,measurement,value
B1,Kd,1.3 nM
same,koff,0.0001 s⁻¹
same,kon,75000 M⁻¹ s⁻¹
